The results in this text go back to patent US20120058906A1 (published 2012).

What all share (experiment): MSD ECL multi-spot, Fab 2.38 uM, blank 526;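 also: blank spot per well as comparator with Hit at signal to blank ratio of 4 or more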
For assay [1], the target named is T1, rHuman Notch-1/Fc Chimera, CF (R&D Systems Cat#3647-TK) (human, UniProt P46531 19-526).
T1 construct: Bought Fc chimera; Fc part of the bought chimera not given

For assay [2], the target named is T2, rHuman CD44/Fc Chimera, CF (R&D Systems Cat#3660-CD) (human, UniProt P16070 21-220).
T2 construct: Bought Fc chimera; Fc part of the bought chimera not given

The target in assay [3] is T3, rHuman IGF-1 sR (insulin-like growth factor-1 soluble receptor), CF (R&D Systems Cat#391-GR) (human, UniProt P08069 31-932).
T3 construct: Bought soluble receptor; also called IGF-R1

In assay [4] the target is T4, rHuman Erythropoietin R/Fc Chimera, CF (R&D Systems Cat#963-ER) (human, UniProt P19235 25-250).
T4 construct: Bought Fc chimera; also called EPO R/Fc; EPOR; Fc part of the bought chimera not given
T4 sequence: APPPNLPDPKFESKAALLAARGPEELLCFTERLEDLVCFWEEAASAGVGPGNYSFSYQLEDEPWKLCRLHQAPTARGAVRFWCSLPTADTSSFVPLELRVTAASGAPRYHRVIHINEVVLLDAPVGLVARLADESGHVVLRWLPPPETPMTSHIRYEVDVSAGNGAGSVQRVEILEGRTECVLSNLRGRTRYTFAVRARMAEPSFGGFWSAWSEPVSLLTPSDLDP

Assay [5] deals with T5, Recombinant Human DLL4 (R&D Systems Cat#1506-D4/CF) (human, UniProt Q9NR61 27-524).
T5 construct: Bought recombinant protein; also called rHuman DLL4; delta-like protein 4

For assay [6], the target named is T6, rHuman ErbB2/Fc Chimera, CF (R&D Systems Cat#1129-ER) (human, UniProt P04626 23-652).
T6 construct: Bought Fc chimera; also called HER2/neu; Fc part of the bought chimera not given

In assay [7] the target is T7, rHuman EGF R/Fc Chimera, CF (R&D Systems Cat#344-ER) (human, UniProt P00533 25-645).
T7 construct: Bought Fc chimera; Fc part of the bought chimera not given

B1: Fab VH5-51_IGHD5-18*01>3_IGHJ4*01 & V3-4_IGLJ1*01 (Fab, V domains shown)
VH: EVQLVQSGAEVKKPGESLKISCKGSGYSFTSYWIGWVRQMPGKGLEWMGIIYPGDSDTRYSPSFQGQVTISADKSISTAYLQWSSLKASDTAMYYCARRGYSYGYDYFDYWGQGTLVTVSS
VL: QTVVTQEPSFSVSPGGTVTLTCGLSSGSVSTSYYPSWYQQTPGQAPRTLIYSTNTRSSGVPDRFSGSILGNKAALTITGAQADDESDYYCVLYMGSGISYVFGTGTKVTVL
notes: Expressed in E. coli as Fab: heavy chain with CH1 plus Flag and His tags from Plasmid A, lambda light chain constant region from Plasmid E; also called Fab No. 2
For B1, the ECL signal in assay [1] was 636; in assay [2] it was 666; in assay [3], 691; in assay [4] it was 834; in assay [5], 12200; in assay [6] it was 594. Moreover, the ECL signal in assay [7] amounted to 681.
